Data published in patent US20130136735A1 (NKT THERAPEUTICS, published 2013).
Each block holds one binder with its values, some of them ahead of it.

Legend:
FcγRIII = biological target: T1, FcγRIII (human); test: in vitro binding experiments, afucosylated against fucosylated IgG1; reference not named
T1 construct: also called Fc-gamma-RIII

[1] = biological target: T2, recombinant soluble human iTCR (Hu-siTCR) (human); test: competition ELISA on plate-bound recombinant TCR heterodimer; competitor biotinylated chimeric 6B11 IgG1; IC50 of test divided by IC50 of reference
T2 construct: Bought recombinant soluble heterodimer, coated on nickel (HIS-Select) plates; also called recombinant TCR heterodimer (Precision Antibody); purified TCR heterodimer

[2] = biological target: T2, recombinant soluble human iTCR …; test: ELISA using Hu-siTCR
[3] = biological target: T2, recombinant soluble human iTCR …; test: SPR (BIAcore)
human FcγRI [4] = biological target: T3, human FcγRI (human, UniProt P12314 16-288, limits assumed); test: summary of Example 2
T3 sequence (P12314 16-288 limits assumed): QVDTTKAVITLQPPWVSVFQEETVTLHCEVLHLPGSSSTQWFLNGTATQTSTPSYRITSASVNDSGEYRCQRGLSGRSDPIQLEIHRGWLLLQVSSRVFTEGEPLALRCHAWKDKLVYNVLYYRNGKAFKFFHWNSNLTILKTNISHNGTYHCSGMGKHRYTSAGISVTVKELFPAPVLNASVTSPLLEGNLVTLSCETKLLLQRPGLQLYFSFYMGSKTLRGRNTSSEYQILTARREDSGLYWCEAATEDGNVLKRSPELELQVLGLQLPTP

human FcγRI [5] = biological target: T3, human FcγRI; test: ELISA / BIAcore, not said which
complement component C1q = complement component C1q (human, UniProt P02745 23-245; P02746 28-253; P02747 29-245); test: ELISA
Sequence of complement component C1q (P02745 23-245 limits assumed, chain 1 of 3): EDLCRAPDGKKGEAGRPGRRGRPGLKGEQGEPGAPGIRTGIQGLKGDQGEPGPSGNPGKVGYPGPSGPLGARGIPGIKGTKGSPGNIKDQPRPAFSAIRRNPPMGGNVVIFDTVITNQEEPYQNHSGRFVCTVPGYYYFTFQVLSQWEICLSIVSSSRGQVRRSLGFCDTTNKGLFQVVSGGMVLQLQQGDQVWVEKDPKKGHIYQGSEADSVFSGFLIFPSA
Sequence of complement component C1q (P02746 28-253 limits assumed, chain 2 of 3): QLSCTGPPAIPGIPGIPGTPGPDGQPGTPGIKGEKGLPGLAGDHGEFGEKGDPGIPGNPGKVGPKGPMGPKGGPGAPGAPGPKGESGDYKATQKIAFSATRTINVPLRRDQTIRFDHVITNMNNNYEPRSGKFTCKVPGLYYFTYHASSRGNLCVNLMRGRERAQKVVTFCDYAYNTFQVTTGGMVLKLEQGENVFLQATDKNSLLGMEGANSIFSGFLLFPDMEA
Sequence of complement component C1q (P02747 29-245 limits assumed, chain 3 of 3): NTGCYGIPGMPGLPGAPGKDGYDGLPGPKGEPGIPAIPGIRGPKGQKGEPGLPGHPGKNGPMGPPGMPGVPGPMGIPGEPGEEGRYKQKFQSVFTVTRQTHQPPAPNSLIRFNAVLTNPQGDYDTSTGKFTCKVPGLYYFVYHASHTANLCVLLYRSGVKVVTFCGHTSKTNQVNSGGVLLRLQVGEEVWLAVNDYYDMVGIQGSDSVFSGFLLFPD

human FcγRI [6] = biological target: T3, human FcγRI; test: ELISA

T1 sequence (P08637 17-208): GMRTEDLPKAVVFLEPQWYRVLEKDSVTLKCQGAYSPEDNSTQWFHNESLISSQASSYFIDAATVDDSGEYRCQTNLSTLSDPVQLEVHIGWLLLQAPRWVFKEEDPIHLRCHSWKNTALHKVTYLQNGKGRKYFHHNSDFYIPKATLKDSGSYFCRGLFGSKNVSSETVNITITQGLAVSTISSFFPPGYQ

fold improvement of binding (FcγRIII): ≤ 100 fold
B1: NKTT219 (antibody, human IgG1)
heavy: not shown
VL: DIVMTQSPSSLSASVGDRVTITCKASQDVSTAVAWYQQKPGQAPRLLIYWASTRHTGVPSRFSGSGSGTDFTLTISSLQPEDFALYYCQQHYSTPWTFGQGTKLEIK
modifications: non-fucosylated (afucosylated) carbohydrate in the Fc portion
notes: also called ADCC-enhanced humanized IgG1

Relative IC50 [1]: 0.212 ratio to chimeric 6B11 IgG1
IC50 [2]: 0.2 µg/mL
Kd [3]: ~60 nM
binding result (human FcγRI [4]): binds
B2: NKTT120 (antibody, human IgG1, kappa)
heavy: not shown
light: DIQMTQSPSSLSASVGDRVTITCKASQDVSTAVAWYQQKPGQAPRLLIYWASTRHTGVPSRFSGSGSGTDFTLTISSLQPEDFALYYCQQHYSTPWTFGQGTKLEIKRTVAAPSVFIFPPSDEQLKSGTASVVCLLNNFYPREAKVQWKVDNALQSGNSQESVTEQDSKDSTYSLSSTLTLSKADYEKHKVYACEVTHQGLSSPVTKSFNRGEC
notes: Humanized IgG1 with VH4 and VK4; also called VH 4/VK4; VH 4/Vκ4

binding result (human FcγRI [5]): no binding
B3: NKTT320 (antibody, human IgG4 S228P, kappa)
heavy: not shown
light: DIQMTQSPSSLSASVGDRVTITCKASQDVSTAVAWYQQKPGQAPRLLIYWASTRHTGVPSRFSGSGSGTDFTLTISSLQPEDFALYYCQQHYSTPWTFGQGTKLEIKRTVAAPSVFIFPPSDEQLKSGTASVVCLLNNFYPREAKVQWKVDNALQSGNSQESVTEQDSKDSTYSLSSTLTLSKADYEKHKVYACEVTHQGLSSPVTKSFNRGEC
notes: also called modified IgG4 anti-iNKT mAb

IC50 [2]: 1 µg/mL
binding result (complement component C1q): binds
binding result (human FcγRI [6]): binds
B4: NKTT103 (6B11 chimeric IgG1 control antibody) (antibody)
heavy: not shown
light: DIVMTQSHKFMSTSVGDRVSITCKASQDVSTAVAWYQQKPGQSPKLLIYWASTRHTGVPDRFTGSGSGTDYTLTISSVQAEDLALYYCQQHYSTPWTFGGGTKLEIKRTVAAPSVFIFPPSDEQLKSGTASVVCLLNNFYPREAKVQWKVDNALQSGNSQESVTEQDSKDSTYSLSSTLTLSKADYEKHKVYACEVTHQGLSSPVTKSFNRGEC
notes: Murine 6B11 V regions on human IgG1; also called chimeric 6B11 IgG1; chimeric 6B11 mAb
